Reference: PMC2733745 (The Journal of Cell Biology, 2009)

How the values were obtained:
[1] = biological target: FN7–10 (fibronectin type III domains 7–10) (human, UniProt P02751-1 1173-1540); assay: SEC
[2] = biological target: full-length WT αVβ3 stably expressed on K562 cells (human, UniProt P06756;P05106); assay: flow cytometry on cells
1TM-αVβ3 = 1TM-αVβ3 (human, UniProt P06756;P05106); assay: SEC

| Binder | stoichiometry N [1] [integrin/FN molar ratio] | binding result [2] | binding result (1TM-αVβ3) |
| --- | --- | --- | --- |
| 1TM-αVβ3 (complex) chain 1: FNLDVDSPAEYSGPEGSYFGFAVDFFVPSASSRMFLLVGAPKANTTQPGIVEGGQVLKCDWSSTRRCQPIEFDATGNRDYAKDDPLEFKSHQWFGASVRSKQDKILACAPLYHWRTEMKQEREPVGTCFLQDGTKTVEYAPCRSQDIDADGQGFCQGGFSIDFTKADRVLLGGPGSFYWQGQLISDQVAEIVSKYDPNVYSIKYNNQLATRTAQAIFDDSYLGYSVAVGDFNGDGIDDFVSGVPRAARTLGMVYIYDGKNMSSLYNFTGEQMAAYFGFSVAATDINGDDYADVFIGAPLFMDRGSDGKLQEVGQVSVSLQRASGDFQTTKLNGFEVFARFGSAIAPLGDLDQDGFNDIAIAAPYGGEDKKGIVYIFNGRSTGLNAVPSQILEGQWAARSMPPSFGYSMKGATDIDKNGYPDLIVGAFGVDRAILYRARPVITVNAGLEVYPSILNQDNKTCSLPGTALKVSCFNVRFCLKADGKGVLPRKLNFQVELLLDKLKQKGAIRRALFLYSRSPSHSKNMTISRGGLMQCEELIAYLRDESEFRDKLTPITIFMEYRLDYRTAADTTGLQPILNQFTPANISRQAHILLDCGEDNVCKPKLEVSVDSDQKKIYIGDDNPLTLIVKAQNQGEGAYEAELIVSIPLQADFIGVVRNNEALARLSCAFKTENQTRQVVCDLGNPMKAGTQLLAGLRFSVHQQSEMDTSVKFDLQIQSSNLFDKVSPVVSHKVDLAVLAAVEIRGVSSPDHVFLPIPNWEHKENPETEEDVGPVVQHIYELRNNGPSSFSKAMLHLQWPYKYNNNTLLYILHYDIDGPMNCTSDMEINPLRIKISSLQTTEKNDTVAGQGERDHLITKRDLALSEGDIHTLGCGVAQCLKIVCQVGRLDRGKSAILYVKSLLWTETFMNKENQNHSYSLKSSASFNVIEFPYKNLPIEDITNSTLVTTNVTWGIQPAPMPVPVWVI chain 2: GPNICTTRGVSSCQQCLAVSPMCAWCSDEALPLGSPRCDLKENLLKDNCAPESIEFPVSEARVLEDRPLSDKGSGDSSQVTQVSPQRIALRLRPDDSKNFSIQVRQVEDYPVDIYYLMDLSYSMKDDLWSIQNLGTKLATQMRKLTSNLRIGFGAFVDKPVSPYMYISPPEALENPCYDMKTTCLPMFGYKHVLTLTDQVTRFNEEVKKQSVSRNRDAPEGGFDAIMQATVCDEKIGWRNDASHLLVFTTDAKTHIALDGRLAGIVQPNDGQCHVGSDNHYSASTTMDYPSLGLMTEKLSQKNINLIFAVTENVVNLYQNYSELIPGTTVGVLSMDSSNVLQLIVDAYGKIRSKVELEVRDLPEELSLSFNATCLNNEVIPGLKSCMGLKIGDTVSFSIEAKVRGCPQEKEKSFTIKPVGFKDSLIVQVTFDCDCACQAQAEPNSHRCNNGNGTFECGVCRCGPGWLGSQCECSEEDYRPSQQDECSPREGQPVCSQRGECLCGQCVCHSSDFGKITGKYCECDDFSCVRYKGEMCSGHGQCSCGDCLCDSDWTGYYCNCTTRTDTCMSSNGLLCSGRGKCECGSCVCIQPGSYGDTCEKCPTCPDACTFKKECVECKKFDRGALHDENTCNRYCRDEIESVKELKDTGKDAVNCTYKNEDDCVVRFQYYEDSSGKSILYVVEEPECPKGPDILVV | ~1 | – | – |
| Fab fragment of the anti–αV propeller mAb 17E6 (Fab, V domains shown) VH: QVQLQQSGAELAEPGASVKMSCKASGYTFSSFWMHWVKQRPGQGLEWIGYINPRSGYTECNEIFRDKATMTADTSSSTAYMQLSGLTSEDSAVYYCASFLGRGAMDYWGQGTSVTVSS VL: DIQMTQTTSSLSASLGDRVIISCRASQDISNYLSWYQQKPDGTVKLLIFYTSKLHSGVPSRFSGSGSGTDYSLTISNLDQEDIATYFCQQGNTFPYTFGGGTKVEMR | – | binds | binds |
